Assay results published in patent publication EP4676971A2 (dated 2026).
“And” between values parts separate entries of the source, which are not always exact repeats. Identical values can stand only once.

T1: DR3 receptor on human TF-1 cells (human, UniProt Q93038 25-417)
T1 construct: whole, on cells; also called death receptor 3; TNFRSF25
T1 sequence (looked up): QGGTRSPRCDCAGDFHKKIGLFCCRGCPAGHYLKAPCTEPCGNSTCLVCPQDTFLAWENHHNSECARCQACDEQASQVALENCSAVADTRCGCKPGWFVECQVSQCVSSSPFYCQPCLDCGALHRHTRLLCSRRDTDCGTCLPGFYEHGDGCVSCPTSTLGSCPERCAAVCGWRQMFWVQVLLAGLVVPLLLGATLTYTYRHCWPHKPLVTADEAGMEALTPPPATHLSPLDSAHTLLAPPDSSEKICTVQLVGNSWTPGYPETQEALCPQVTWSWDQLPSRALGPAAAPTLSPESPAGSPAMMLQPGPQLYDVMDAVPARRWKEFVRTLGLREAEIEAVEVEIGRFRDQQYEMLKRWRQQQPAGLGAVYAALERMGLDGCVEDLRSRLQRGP

T2: recombinant cynomolgus monkey TL1A protein (cynomolgus monkey, UniProt G7PRK8 72-251)
T2 construct: also called cynomolgus TL1A
T2 sequence: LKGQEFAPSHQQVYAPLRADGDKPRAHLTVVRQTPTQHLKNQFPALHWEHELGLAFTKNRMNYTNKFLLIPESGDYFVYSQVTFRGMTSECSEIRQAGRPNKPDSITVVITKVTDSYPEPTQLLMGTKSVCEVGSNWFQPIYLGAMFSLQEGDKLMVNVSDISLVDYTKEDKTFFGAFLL

T3: TNFSF6 (FasL) (UniProt P48023 134-281, limits assumed)
T3 sequence (looked up): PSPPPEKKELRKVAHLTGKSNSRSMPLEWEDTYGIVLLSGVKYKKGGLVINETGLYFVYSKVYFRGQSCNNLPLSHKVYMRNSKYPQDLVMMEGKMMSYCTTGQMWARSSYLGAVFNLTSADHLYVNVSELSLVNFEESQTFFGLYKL

T4: recombinant mouse TL1A protein (mouse, UniProt Q5UBV8 76-252, limits assumed)
T4 construct: also called murine TL1A
T4 sequence (looked up): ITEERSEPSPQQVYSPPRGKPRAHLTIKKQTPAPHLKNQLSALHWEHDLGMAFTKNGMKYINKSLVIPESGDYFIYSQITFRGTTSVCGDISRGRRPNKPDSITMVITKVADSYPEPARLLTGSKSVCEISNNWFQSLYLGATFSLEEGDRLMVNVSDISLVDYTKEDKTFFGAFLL

T5: recombinant rat TL1A protein (rat, UniProt Q8K3Y7 76-252, limits assumed)
T5 sequence (looked up): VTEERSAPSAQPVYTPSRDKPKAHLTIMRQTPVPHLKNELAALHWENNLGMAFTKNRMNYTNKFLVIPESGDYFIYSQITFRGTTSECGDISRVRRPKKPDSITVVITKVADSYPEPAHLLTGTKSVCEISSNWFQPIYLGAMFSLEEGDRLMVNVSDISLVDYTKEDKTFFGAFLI

T6: cynomolgus monkey TL1A produced by PBMCs in stimulated whole blood (cynomolgus monkey, UniProt G7PRK8 72-251)
T6 sequence: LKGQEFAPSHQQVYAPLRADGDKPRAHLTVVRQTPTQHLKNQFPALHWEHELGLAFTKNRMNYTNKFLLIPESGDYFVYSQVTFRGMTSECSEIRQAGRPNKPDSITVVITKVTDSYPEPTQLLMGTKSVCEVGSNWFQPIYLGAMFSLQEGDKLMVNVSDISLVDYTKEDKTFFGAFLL

T7: membrane-bound human TL1A on TNFSF15/HEK293 cells (human, UniProt O95150 1-251)
T7 construct: whole, on cells; also called membrane-associated TL1A
T7 sequence (looked up): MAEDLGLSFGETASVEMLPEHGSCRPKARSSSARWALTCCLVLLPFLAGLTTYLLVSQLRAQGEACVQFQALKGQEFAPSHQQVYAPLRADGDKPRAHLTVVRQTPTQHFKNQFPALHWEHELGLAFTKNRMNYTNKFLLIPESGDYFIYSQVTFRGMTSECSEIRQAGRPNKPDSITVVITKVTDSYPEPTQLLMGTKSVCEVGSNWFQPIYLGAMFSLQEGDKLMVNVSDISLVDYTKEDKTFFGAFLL

B1: recombinant human TL1A protein (ligand, UniProt O95150 72-251, looked up)
chain: LKGQEFAPSHQQVYAPLRADGDKPRAHLTVVRQTPTQHFKNQFPALHWEHELGLAFTKNRMNYTNKFLLIPESGDYFIYSQVTFRGMTSECSEIRQAGRPNKPDSITVVITKVTDSYPEPTQLLMGTKSVCEVGSNWFQPIYLGAMFSLQEGDKLMVNVSDISLVDYTKEDKTFFGAFLL
notes: also called tumor necrosis factor-like cytokine 1A; TNFSF15

Tests used:
[1] = molecular target: T1, DR3 receptor on human TF-1 cells; assay: TF-1 cell caspase activation assay
[2] = molecular target: T2, recombinant cynomolgus monkey TL1A …; assay: surface plasmon resonance (SPR), recombinant TL1A protein
[3] = molecular target: B1; assay: as above
TNFSF6 (FasL) = molecular target: T3, TNFSF6 (FasL); assay: ELISA
TNFSF10 (TRAIL) = TNFSF10 (TRAIL) (UniProt P50591 114-281, limits assumed); assay: ELISA
TNFSF14 (LIGHT) = TNFSF14 (LIGHT) (UniProt O43557 74-240, limits assumed); assay: ELISA
[4] = molecular target: T4, recombinant mouse TL1A protein; assay: ELISA on recombinant TL1A protein
[5] = molecular target: T5, recombinant rat TL1A protein; assay: ELISA on recombinant TL1A protein
[6] = molecular target: T2, recombinant cynomolgus monkey TL1A …; assay: cell-based or functional assay
[7] = molecular target: T6, cynomolgus monkey TL1A produced by …; assay: cell-based or functional assay
[8] = molecular target: B1; assay: cell-based or functional assay
[9] = molecular target: T2, recombinant cynomolgus monkey TL1A …; assay: ELISA, binding to recombinant TL1A protein
[10] = molecular target: T7, membrane-bound human TL1A on …; assay: binding to TNFSF15/HEK293 cells that carry human TL1A, dose-dependent

Chain of TNFSF14 (LIGHT) (O43557 74-240 limits assumed): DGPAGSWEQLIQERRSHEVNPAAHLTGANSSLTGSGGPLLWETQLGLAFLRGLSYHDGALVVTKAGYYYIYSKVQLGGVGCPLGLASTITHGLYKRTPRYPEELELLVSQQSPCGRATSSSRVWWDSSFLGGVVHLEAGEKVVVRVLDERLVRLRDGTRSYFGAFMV
Chain of TNFSF10 (TRAIL) (P50591 114-281 limits assumed): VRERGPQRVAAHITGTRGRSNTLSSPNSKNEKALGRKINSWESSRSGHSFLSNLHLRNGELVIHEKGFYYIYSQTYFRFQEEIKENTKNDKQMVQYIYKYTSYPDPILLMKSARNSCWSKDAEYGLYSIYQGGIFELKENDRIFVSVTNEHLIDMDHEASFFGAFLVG

| binding result [1] | Kd [2] | Kd [3] | binding result (TNFSF6 (FasL)) | binding result (TNFSF10 (TRAIL)) | binding result (TNFSF14 (LIGHT)) | binding result [4] | binding result [5] | inhibition of TL1A-induced caspase activation in TF-1 cells (IC50) [6] | inhibition of the IFN-gamma response in monkey whole blood (mean IC50) [7] | inhibition of TL1A-induced caspase activation in TF-1 cells (IC50) [8] | IC50 [9] | EC50 [10] | Binder |
| --- | --- | --- | --- | --- | --- | --- | --- | --- | --- | --- | --- | --- | --- |
| binds |  |  |  |  |  |  |  |  |  |  |  |  | B1 |
|  | 0.04 nM | 0.06 nM | no binding | no binding | no binding | no binding | no binding | 0.59 nM | 1.54 nM and 289 ng/mL | 0.27 nM | 0.47 nM | 17.4 nM | anti-TL1A antibody A219 (antibody, V domains shown, Humanized monoclonal antibody; Molecular weight 143938 Daltons; The constant region is not tied to A219 in the readable text) VH: QVQLVQSGAEVKKPGASVKVSCKASGFDIQDTYMHWVKQRPGQGLEWMGRIDPASGHTKYDPKFQVRVTITRDTSTSTVYLELSSLRSEDTAVYYCARSGGLPDVWGQGTTVTVSS VL: EIVLTQSPGTLSLSPGERATLSCRASSSVSYMYWYQQKPGQAPRPLIYATSNLASGIPDRFSGSGSGTDFTLTISRLEPEDFAVYYCQQWEGNPRTFGGGTKLEIK |
